Results taken from patent US6887471.

B1: CD7 expressed on transfected COS cells (receptor, UniProt P09564 26-240, looked up)
chain: AQEVQQSPHCTTVPVGASVNITCSTSGGLRGIYLRQLGPQPQDIIYYEDGVVPTTDRRFRGRIDFSGSQDNLTITMHRLQLSDTGTYTCQAITEVNVYGSGTLVLVTEEQSQGWHRCSDAPPRASALPAPPTGSALPDPQTASALPDPPAASALPAALAVISFLLGLGLGVACVLARTQIKKLCSWRDKNSAACVVYEDMSHSRCNTLSSPNQYQ
notes: whole, on cells; Control transfectant; also called CD7-transfected COS cells

Tests used:
[1] = target: B7 antigen (B7/BB-1, B7-1) on the cell surface (human) (UniProt P33681); assay: cell-based or functional assay
[2] = target: B7 Ig fusion protein (human) [IgG part: P01857]; assay: solid phase competition: 125I-B7 Ig binding to immobilized CTLA4 Ig
B7 Ig fusion protein = target: T1, B7 Ig fusion protein (human, UniProt P01857-1 99-330 = IgG part, limits assumed, 125I label in the solid phase binding assays); assay: FACS, indirect immunostaining of transfected COS cells
T1 construct: domain: hinge, CH2 and CH3 regions; Made as in Linsley et al. 1991; also called B7IgCγ1

| Molecule | inhibition of Th-induced IgM production [1] [%] | IC50 [2] [nM] | binding result (B7 Ig fusion protein) |
| --- | --- | --- | --- |
| murine monoclonal antibody BB-1 (anti-B7 antigen) | 65 | 22 |  |
| B1 |  |  | no binding (tested: 10 µg/ml) |
